Values of other authors, collected in article PMC6669380.

Target: SLP-76 RxxK motif (Homo sapiens) (UniProt Q13094)

- Kd: 14.5 nM
Substance: Gads C-terminal SH3 (from UniProt O75791)
